Experimental data taken from the nanobody polyreactivity screen of Harvey et al. (2022).

Assay: yeast display, Sf9 membrane polyspecificity reagent, FACS + sequencing; frameworks hold sequencing errors
Summary of the method: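 Genes from sorted yeast were amplified by colony PCR, read by MiSeq 2 × 250 sequencing and filtered on CDR length. These cells carried a synthetic nanobody library in Saccharomyces cerevisiae BJ5465 and were sorted by FACS into low and high (top ~1%) gates on anti-HA and streptavidin fluorescence. Polyreactivity is labelled according to the gate of origin.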

Sequence	polyreactivity (PSR sort gate)
QFQLVESGGGLVQAGGSLRLSCADSGSTFFNNAMGWYRHAPGKERELVAAITSSGGSTYYADSVKGRFSISRDNAKNTVYLQMNSLKPEDTAVYYCNKKSALYRRYDYWGQGTQVTVSS	low polyreactivity
QVQLVESGGGLVQAGGSLLLSCAATGITFVPNAMGWYRQAPGKERELVDAISTRGGSTYYADSVKGRFTISRDNAKNTVYLQMNSLKPEDTAVYYCNALITGRWFDYWGQGTQVTVSS	high polyreactivity
QVQLVESGGGLVQAGGSLRLSCAASGLIFVHYAMGWYRQAPGKERELVAAISAGGGSTYYADSVKGRFTISRDNAKNTVYLQMNSLKPEDTAVYYCNARVVNYFRPRTGAREYDYWGQGTQVTVSS	high polyreactivity
QVQLVESGAGLVQAGGSLGLSCAASGSNFIYNAMGLYRQAPGKERELVAAITDRSTKYADSVKGRFTISRDNAKYSGYVQMNSLKTEDTAVYYSNAYVWRWRYDSWGQVTQVTVSS	low polyreactivity
QVQLVESGGGLVQAGGSLRLSCAASGFIFFYNAMGWYRQAPGKERELVAAISARGGSTYYADSVKGRFTISRDNAKNTVYLQMNSLKPEDTAVYYCNAVFPWPYVSRSIYWYYWGQGTQVTVSS	high polyreactivity
QVQLVESGGGLVQAGGSLRLSCAASGSTFSYNAMGWYRQAPGKVRELVASINSRGGTTYYADSVKGRFTISRDNAKNTVYLQMNSLKPEDTAVYYCATDVYRLGEYDYWGQGTQVTVSS	low polyreactivity
QVQLVESGGGLVQAGGSLRLRCAASGSIFSGNAMGWYRQAPGKESELVAAISVNGGRTYYADSVKGRFTISRDNAKNTVSLQMNSLKPEDTAVYYCNAVTKVVYHGPYGYDYWGQGTQVTVSS	high polyreactivity
QEQLVESGGGLVQAGGSLRLSCAASGSTFYANAMGWYRQAPGQERELVAAISWDGGNTYYADSVKGRFTISRDNAKNNVYLQMNSLKPEDTAVYYCARDYYGTVYYYGYDYWGQGTQVTVSS	low polyreactivity
QVQLVESGGGLVQAGGSLRLSCAASRRIIYRSAMGWYRQAPGKERELLAAITSGDSTYYADSVKVRFTISRDNSKNTVFLQMNSLKPEDTAVYYCAADYLSRSPAYEHYYWGQGTQVTVSS	high polyreactivity
QDQLVESGGGLVQAGVSLRLSCAASGSTFAYITMGRYRQAPGKERELVAAISWRGTRTYYADSVKGRFTISRDNAKNNVYLQMNSLKPEDTAVYYCATKDGISYDYWVQGTQVTVSS	high polyreactivity
QVQLVESGGGLVQAGGSLRLSCAASGRIFRVNAMGWYRQAPGKERELVATITGSGGSTYYADSVKGRFTISRDNAKNTVYLQMNSLKPEDTAVYYCAAVSYWPTDRYYSWGQGTQVTVSS	low polyreactivity
QVQLVESGGGLVQAGGSLRLTCAASGRIFDRYVMGWYRQAPGKERELVAAITFSGGRTYYADSVKGRFTISRDNAKNTVYLQMNSLKPEDTAVYYCNRVYYQKIYDYWGQGTQVTVSS	high polyreactivity
QVQLVESGGGLVQAGGSLRLSCAASGIIFHYYAMGWYRQAPVKERELVAVITSGGSTNYADSVKGRFTISRDNAKNTVYLQMNSLKPEDTAVYYCAADPIRDSWWQYFQDGREYDYWGQGTQVTVSS	low polyreactivity
QVQLVESGGRLVQAGGSLRLSCAASGRTFRWYAMGWYRQAPGKEREVVAAITFSGGSTYYADSVKGRFTISRDIAKNTVYLQMNSLKPEDTAVYYCNAVYYRRKEYDYWGQGTQVTVSS	high polyreactivity
QGQLVESWGGLVQAGGSLRLSCAASGSTFCDYAMGWYRQAPGQERELVAAIDWSDGSTYYADSVKGRFTSSRDNAKNTGYLQMNSLKPEDTAVYYCAAEQWYGMYYWGQGTQVTVSS	high polyreactivity
QVQIGESGGGLVQAGGSLRLSCAACGFIFYRYAMGWYRQAPGKERELVAAISWSGGTTYYADSVKGRFTISRDNAKNTDYLQMNSLKPEDTAVYYCNARYPRSSPFGYWGQGTQVTVSS	high polyreactivity

Sequence	polyreactivity (PSR sort gate)
QVQLVESGGGLVQAGGSLRLTCAASGRTFWTNAMGWYRQAPGKVRELVAAIRNSGGRTYYADSVKGRFTISRDNAKNTVYLQMNSLKPEDTAVYYCNADFWYSYGYDYWGQGTQVTVSS	low polyreactivity
QVQLVESGGGLVQAGGSLRLSCAASGFTFTWYAMGWYRQAPGKERELVATISRSGGRTYYADSVKGRFTISRDNAKNTVYLQMNSLKPEDTAVYYCAADTRNYPRYDYWGQGTQVTVSS	high polyreactivity
QVQLVDSGGGLVQAGGSLRLICAASGSTFNYYAMGSYRQAPGKERELVAAISYSSGRTYYADSVKGRFTISRDNSKNTVYLQMNSMKPEDTAVYYCAADRYMVSSSVHSFGYWGQGTQVTVSS	high polyreactivity
QVQLVESGGGLVQAGGSLRLSCAASGFIFYKYTMGWYRQAPGKERELVAAISTSGGRTYYADSVKGRFTISRDNAKNTVYLQMNSLKPEDTAVYYCAAQYSYPYYKVTLYYWGQGTQVTVSS	high polyreactivity
QVQLVESGGGLVQAGGSLRLSCAASGSNLGNNDMGWYRQAPGKERQLVAAISRSDVSTFYADSVKGRFTISRDNAKNTVYLQMNSLKPEDTAVSSCAARTGRGDRTRRYYYWGQGTQVTVSS	high polyreactivity
QVQLVESGGGLVQAGGSLRLSCAASGSTFVWYVMGWYRQAPGKEREFVAAISTSGGRTYYADSVKGRFTISRDNAKNTGYLQMNSLKPEDTAVYYCATRPYFTYRWYDYWGQGTQVTVSS	high polyreactivity
QVQLVESGGGLVQAGGSLRLSCAASGLTFYPNAMGWYRQAPGKERELVAGITSGGSTYYADSVKGRFTISRDNAKNTVYLQMNSLKPEDTAVYYCAAYYNFGDYEYDYWGQGTQVTVSS	low polyreactivity
QVQHVESGGGLVQAGGSLRLSCAASGFIFRWYAMGWYRQAPGKERELVAAITTSGGITYYADSVKGRFTISRDNAKNTVYLQMNSLKPEDTAVYYCNRSPWYGPWHPNSFGSGDYWGQGTQVTVSS	low polyreactivity
QVQLVESGGGLVQAGGSLSLSCAASGSTFQLYAKGWYRQAPGKERELVAAISGIGDSTYYADSVKWRFTISRDNAKNTVYLLMNSLKPEDTAVYYCAREFSDGLSGKFDYWGHGTQVTVSS	low polyreactivity
QVQLVESGGGLVQAGGSLRLSCAASGRIFNYYAMGWYRQAPGKERELVASITSRGGTTYYADSVKGRFTISRDKAKKTVYLQMNSLIPEDTAVYYCAAFTRPVSRRSRMNYWGQGTQVTVSS	high polyreactivity
QVQLVESGGGLVQAGGSLRLSCAASGLIFWYYTMGWYRQAPGKERELVAAITIGGSTYYADSVKGRFTISRDNAKNTVYLQMNSLKPEDTAVYYCNTRRGRSQGGRYEYDYWGQGTQVTVSS	low polyreactivity
QVQLVESGGRLVQAGGSLRLSCAASGSTFPLYARGWCRQAPGKERELVAAITGGGGRTYYADSVKGRFTISRDNAKNTVYLQMNSLKPEDTGVYYCNAVVYLTNYWYDYWGQGTQVTVSS	low polyreactivity
QVQLVESGGGLVQAGGSLRLSCAASGISFYSYTMGWYIQAPGKERELVAAIRGSDGSTYYADSVKGRFTLSRDNAKNTVYLQMNSLKPEVTAVYYCNRKFYWRRDYWGQGTQVTVSS	high polyreactivity
QVQLVESGGVLVQEGGSLRLICAASGSIFGYYVMGWYRQAPGKERELVAAISRSGGSTYYADSVKGLFTISRDNAKTTVYLQMNSLKQEDTAVYYCAASFAVRYPRLDYWGQGTQVTVSS	high polyreactivity
QVQLVESGGGLVQAGGSLRLSCAASGRTFNYYARGWYRQAPGKERELVAAISKRGGSTYYADSVKGRFTISRDNAKNTVYLQMNSLKPEDTAVYYCNAAQSVELGYDYWGKGTQVTVSS	high polyreactivity
QVQLVESRGGLVQAGRSLRLSCAASGSTFVQYVMGWYRQAPGKERELVAAITRSGGSTYYADSVKGRFTISRDNAKNTVYLHMNSLKPEDTAVYYCAAVPWRRSTRYDYWGQGTQVTVSS	high polyreactivity
